Where a chain is given by its changes, count along the chain named. Numbers in names are those of the source.
B1: dual inhibitor molecule A (VEGF Trap-AntiIL-6) (other)
heavy: SDTGRPFVEMYSEIPEIIHMTEGRELVIPCRVTSPNITVTLKKFPLDTLIPDGKRIIWDSRKGFIISNATYKEIGLLTCEATVNGHLYKTNYLTHRQTNTIIDVVLSPSHGIELSVGEKLVLNCTARTELNVGIDFNWEYPSSKHQHKKLVNRDLKTQSGSEMKKFLSTLTIDGVTRSDQGLYTCAASSGLMTKKNSTFVRVHEKGGGGSGGGGSEVQLVESGGGLVQPGGSLRLSCAASGFTFSPFAISWVRQAPGKGLEWVAKISPGGSWTYYSDTVTDRFTFSLDTSKSTAYLQMNSLRAEDTAVYYCARQLWGYYALDVWGQGTLVTVSSASTKGPSVFPLAPSSKSTSGGTAALGCLVKDYFPEPVTVSWNSGALTSGVHTFPAVLQSSGLYSLSSVVTVPSSSLGTQTYICNVNHKPSNTKVDKKVEPKSCDKTHTCPPCPAPEAAGAPSVFLFPPKPKDTLMISRTPEVTCVVVDVSHEDPEVKFNWYVDGVEVHNAKTKPREEQYNSTYRVVSVLTVLHQDWLNGKEYKCKVSNKALPAPIEKTISKAKGQPREPQVYTLPPSREEMTKNQVSLTCLVKGFYPSDIAVEWESNGQPENNYKTTPPVLDSDGSFFLYSKLTVDKSRWQQGNVFSCSVMHEALHNHYTQKSLSCSPGK
light: DIQLTQSPSSLSASVGDRVTITCSASISVSYLYWYQQKPGKAPKLLIYDDSSLASGVPSRFSGSGSGTDFTLTISSLQPEDFATYYCQQWSGYPYTFGQGTKVEIKRTVAAPSVFIFPPSDEQLKSGTASVVCLLNNFYPREAKVQWKVDNALQSGNSQESVTEQDSKDSTYSLSSTLTLSKADYEKHKVYACEVTHQGLSSPVTKSFNRGEC
B2: dual inhibitor molecule G (AntiIL-6-VEGF Trap) (other)
heavy: EVQLVESGGGLVQPGGSLRLSCAASGFTFSPFAISWVRQAPGKGLEWVAKISPGGSWTYYSDTVTDRFTFSLDTSKSTAYLQMNSLRAEDTAVYYCARQLWGYYALDVWGQGTLVTVSSASTKGPSVFPLAPSSKSTSGGTAALGCLVKDYFPEPVTVSWNSGALTSGVHTFPAVLQSSGLYSLSSVVTVPSSSLGTQTYICNVNHKPSNTKVDKKVEPKSCGGGGSGGGGSSDTGRPFVEMYSEIPEIIHMTEGRELVIPCRVTSPNITVTLKKFPLDTLIPDGKRIIWDSRKGFIISNATYKEIGLLTCEATVNGHLYKTNYLTHRQTNTIIDVVLSPSHGIELSVGEKLVLNCTARTELNVGIDFNWEYPSSKHQHKKLVNRDLKTQSGSEMKKFLSTLTIDGVTRSDQGLYTCAASSGLMTKKNSTFVRVHEKDKTHTCPPCPAPEAAGAPSVFLFPPKPKDTLMISRTPEVTCVVVDVSHEDPEVKFNWYVDGVEVHNAKTKPREEQYNSTYRVVSVLTVLHQDWLNGKEYKCKVSNKALPAPIEKTISKAKGQPREPQVYTLPPSREEMTKNQVSLTCLVKGFYPSDIAVEWESNGQPENNYKTTPPVLDSDGSFFLYSKLTVDKSRWQQGNVFSCSVMHEALHNHYTQKSLSCSPGK
light: B1 light
notes: Trap-antibody fusion, VEGF trap between the Fab region (VH variant I) and the Fc; light chain variant III
B3: dual inhibitor molecule B (VEGF Trap-AntiIL-6) (other)
heavy: B1 heavy
light: B1 light with D50A
notes: Trap-antibody fusion, VEGF trap at the N-terminus of the anti-IL-6 heavy chain (VH variant I); light chain variant IV
B4: dual inhibitor molecule E (VEGF Trap-AntiIL-6) (other)
heavy: B1 heavy with I249W
light: B1 light with D50A
notes: Trap-antibody fusion, VEGF trap at the N-terminus of the anti-IL-6 heavy chain (VH variant II); light chain variant IV
B5: dual inhibitor molecule J (AntiIL-6-VEGF Trap) (other)
heavy: B2 heavy with I34W
light: B1 light
notes: Trap-antibody fusion, VEGF trap between the Fab region (VH variant II) and the Fc; light chain variant III
B6: dual inhibitor molecule H (AntiIL-6-VEGF Trap) (other)
heavy: B2 heavy
light: B1 light with D50A
notes: Trap-antibody fusion, VEGF trap between the Fab region (VH variant I) and the Fc; light chain variant IV
B7: dual inhibitor molecule F (VEGF Trap-AntiIL-6) (other)
heavy: B1 heavy with I249W
light: B1 light with S52N
notes: Trap-antibody fusion, VEGF trap at the N-terminus of the anti-IL-6 heavy chain (VH variant II); light chain variant V
B8: dual inhibitor molecule I (AntiIL-6-VEGF Trap) (other)
heavy: B2 heavy
light: B1 light with S52N
notes: Trap-antibody fusion, VEGF trap between the Fab region (VH variant I) and the Fc; light chain variant V
B9: dual inhibitor molecule D (VEGF Trap-AntiIL-6) (other)
heavy: B1 heavy with I249W
light: B1 light
notes: Trap-antibody fusion, VEGF trap at the N-terminus of the anti-IL-6 heavy chain (VH variant II); light chain variant III
B10: dual inhibitor molecule C (VEGF Trap-AntiIL-6) (other)
heavy: B1 heavy
light: B1 light with S52N
notes: Trap-antibody fusion, VEGF trap at the N-terminus of the anti-IL-6 heavy chain (VH variant I); light chain variant V
B11: anti-IL-6 antibody, heavy chain variant I (M34I, G66D, I108V) / light chain variant V (M32L, M50D, M88Q) (antibody, V domains shown)
VH: EVQLVESGGGLVQPGGSLRLSCAASGFTFSPFAISWVRQAPGKGLEWVAKISPGGSWTYYSDTVTDRFTFSLDTSKSTAYLQMNSLRAEDTAVYYCARQLWGYYALDVWGQGTLVTVSS
VL: DIQLTQSPSSLSASVGDRVTITCSASISVSYLYWYQQKPGKAPKLLIYDDSNLASGVPSRFSGSGSGTDFTLTISSLQPEDFATYYCQQWSGYPYTFGQGTKVEIK
notes: See note of m39; also called M34I, G66D, I108V/ M32L, M50D, M88Q; I/V
B12: anti-IL-6 antibody, heavy chain variant II (M34W, G66D, I108V) / light chain variant IV (M32L, M50A, N52S, M88Q) (antibody, V domains shown)
VH: B11 VH with I34W
VL: B11 VL with D50A, N52S
notes: See note of m39; also called M34W, G66D, I108V/ M32L, M50A, N52S, M88Q; II/IV
B13: anti-IL-6 antibody, light chain M50D (heavy chain WT) (antibody, V domains shown)
VH: B11 VH with I34M, D66G, V108I
VL: B11 VL with L32M, Q88M
notes: See note of m2; also called WT / M50D
B14: anti-IL-6 antibody, light chain M32V (heavy chain WT) (antibody, V domains shown)
VH: B11 VH with I34M, D66G, V108I
VL: B11 VL with L32V, D50M, Q88M
notes: See note of m2; also called WT / M32V
B15: anti-IL-6 antibody, light chain T96V (heavy chain WT) (antibody, V domains shown)
VH: B11 VH with I34M, D66G, V108I
VL: B11 VL with L32M, D50M, Q88M, T96V
notes: See note of m2; also called WT / T96V
B16: anti-IL-6 antibody, heavy chain variant II (M34W, G66D, I108V) / light chain variant III (M32L, M50D, N52S, M88Q) (antibody, V domains shown)
VH: B11 VH with I34W
VL: B11 VL with N52S
notes: See note of m39; also called M34W, G66D, I108V/ M32L, M50D, N52S, M88Q; II/III
B17: anti-IL-6 antibody, light chain M88A (heavy chain WT) (antibody, V domains shown)
VH: B11 VH with I34M, D66G, V108I
VL: B11 VL with L32M, D50M, Q88A
notes: See note of m2; also called WT / M88A
B18: anti-IL-6 antibody, heavy chain variant II (M34W, G66D, I108V) / light chain variant V (M32L, M50D, M88Q) (antibody, V domains shown)
VH: B11 VH with I34W
VL: B11 VL
notes: See note of m39; also called M34W, G66D, I108V/ M32L, M50D, M88Q; II/V
B19: anti-IL-6 antibody, light chain M88V (heavy chain WT) (antibody, V domains shown)
VH: B11 VH with I34M, D66G, V108I
VL: B11 VL with L32M, D50M, Q88V
notes: See note of m2; also called WT / M88V
B20: anti-IL-6 antibody, light chain T96L (heavy chain WT) (antibody, V domains shown)
VH: B11 VH with I34M, D66G, V108I
VL: B11 VL with L32M, D50M, Q88M, T96L
notes: See note of m2; also called WT / T96L
B21: anti-IL-6 antibody, light chain D49E (heavy chain WT) (antibody, V domains shown)
VH: B11 VH with I34M, D66G, V108I
VL: B11 VL with L32M, D49E, D50M, Q88M
notes: See note of m2; also called WT / D49E

Target: T1, recombinant human IL-6 (human, UniProt P05231 30-212)
T1 construct: Bought protein
T1 sequence (P05231 30-212 limits assumed): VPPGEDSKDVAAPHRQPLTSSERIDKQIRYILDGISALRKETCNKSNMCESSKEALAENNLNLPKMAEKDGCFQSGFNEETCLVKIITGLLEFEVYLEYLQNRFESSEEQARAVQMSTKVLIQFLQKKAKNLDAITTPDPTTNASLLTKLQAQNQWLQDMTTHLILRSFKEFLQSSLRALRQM
Test: SPR Biacore, supernatant dual inhibitor on Protein A chip, IL-6 analyte, 25 C

| Kd [nM] | koff [s⁻¹] | kon [M⁻¹ s⁻¹] | Binder |
| --- | --- | --- | --- |
| 0.589 | 0.000182 | 309000 | B1 |
| 0.589 | 0.000149 | 252000 | B2 |
| 0.305 | 0.000185 | 605000 | B3 |
| 0.299 | 0.000151 | 504000 | B4 |
| 0.28 | 0.000149 | 534000 | B5 |
| 0.356 | 0.000162 | 454000 | B6 |
| 0.225 | 0.000137 | 611000 | B7 |
| 0.679 | 0.000147 | 217000 | B8 |
| 0.253 | 0.000109 | 433000 | B9 |
| 0.394 | 0.00015 | 379000 | B10 |

Target: T1, recombinant human IL-6
Test: SPR Biacore, purified Ab on Protein A chip, IL-6 analyte, 37 C
Method: (§1) Antibodies were captured on a Protein A chip (GE) by injecting 1:20 dilution of cell supernatant at 10 μL/min for 60 seconds. […] The sensor chip was regenerated by a 60 seconds injection of 10 mM Glycine pH 1.7 at flow rate of 50 μL/min. […] For this setup, 1 μg/mL of purified antibody was injected over a Protein A chip at 10 μL/min for 25-28 seconds. Data analysis for supernatant and purified samples were performed using BIAevaluation software (GE). All sensorgrams were double reference subtracted and fit using a 1:1 Langmuir binding model.

| Kd [nM] | koff [s⁻¹] | kon [M⁻¹ s⁻¹] | Binder |
| --- | --- | --- | --- |
| 0.602 | 0.00073 | – | B11 |
| 0.615 | 0.000652 | 1.08e+06 | B12 |
| 0.311 | 0.000464 | 1.49e+06 | B13 |
| 0.429 | 0.000369 | 861000 | B14 |
| 0.695 | 0.000639 | 921000 | B15 |
| 0.507 | 0.000551 | 1.19e+06 | B16 |
| 2.25 | 0.00132 | 586000 | B17 |
| 0.465 | 0.000627 | 1.34e+06 | B18 |
| 0.713 | 0.000441 | 619000 | B19 |
| 0.901 | 0.000795 | 882000 | B20 |
| 0.624 | 0.000417 | 668000 | B21 |

Target: T1, recombinant human IL-6
Test: SPR Biacore, supernatant Ab on Protein A chip, IL-6 analyte, 25 C
Method: as §1

| Kd [nM] | koff [s⁻¹] | kon [M⁻¹ s⁻¹] | Binder |
| --- | --- | --- | --- |
| 0.386 | – | – | B11 |
| 0.297 | 0.00117 | 559000 | B12 |
| 0.138 | 0.000112 | 806000 | B13 |
| 0.23 | 0.000116 | 505000 | B14 |
| 0.423 | 0.000192 | 454000 | B15 |
| 0.37 | 0.000173 | – | B16 |
| 0.282 | 0.000127 | 451000 | B17 |
| 0.231 | 0.000271 | 700000 | B18 |
| 0.239 | 0.000107 | 448000 | B19 |
| 0.259 | 0.000135 | 520000 | B20 |
| 0.241 | 0.000111 | 459000 | B21 |

Target: T1, recombinant human IL-6
Test: SPR Biacore, purified dual inhibitor on Protein A chip, IL-6 analyte, 37 C

| Kd [nM] | koff [s⁻¹] | kon [M⁻¹ s⁻¹] | Binder |
| --- | --- | --- | --- |
| 0.484 | 0.000538 | 1.11e+06 | B1 |
| 0.451 | 0.000567 | 1.26e+06 | B2 |
| 0.507 | 0.000536 | 1.06e+06 | B3 |
| 0.424 | 0.000459 | 1.08e+06 | B4 |
| 0.468 | 0.000664 | 1.42e+06 | B5 |
| 0.396 | 0.000529 | 1.34e+06 | B6 |
| 0.34 | 0.000446 | 1.31e+06 | B7 |
| 0.435 | 0.000499 | 1.15e+06 | B8 |
| 0.365 | 0.000447 | 1.23e+06 | B9 |
| 0.477 | 0.000481 | 1.01e+06 | B10 |

From patent publication US20240209076A1 (KODIAK SCIENCES, published 2024)
